# Results: publication PMC4565748 (Molecular immunology, 2015)
# Target: C3b (Homo sapiens, UniProt P01024)
# Assay: SPR direct binding to site-specifically immobilized C3b
# Settings: SPR kinetic analysis, 1:1 Langmuir model
# Chain of C3b (P01024 23-667 limits assumed): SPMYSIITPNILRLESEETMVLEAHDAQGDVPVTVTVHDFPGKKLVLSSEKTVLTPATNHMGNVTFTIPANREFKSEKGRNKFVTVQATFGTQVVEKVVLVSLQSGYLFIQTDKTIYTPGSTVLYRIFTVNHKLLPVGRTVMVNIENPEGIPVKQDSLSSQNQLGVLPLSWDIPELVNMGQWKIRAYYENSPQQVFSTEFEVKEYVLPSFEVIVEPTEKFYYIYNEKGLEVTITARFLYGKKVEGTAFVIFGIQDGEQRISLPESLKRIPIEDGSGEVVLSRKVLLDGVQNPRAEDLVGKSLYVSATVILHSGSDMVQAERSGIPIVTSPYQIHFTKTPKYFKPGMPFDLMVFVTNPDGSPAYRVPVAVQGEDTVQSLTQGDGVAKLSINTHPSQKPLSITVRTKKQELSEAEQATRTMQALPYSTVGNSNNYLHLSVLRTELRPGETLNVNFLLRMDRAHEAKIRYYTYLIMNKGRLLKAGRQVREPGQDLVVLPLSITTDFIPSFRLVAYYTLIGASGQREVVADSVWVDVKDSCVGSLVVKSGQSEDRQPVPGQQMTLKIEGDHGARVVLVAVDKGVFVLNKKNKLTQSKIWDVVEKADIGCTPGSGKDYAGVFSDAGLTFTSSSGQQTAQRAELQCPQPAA
# Chain of C3b (P01024 749-1663 limits assumed): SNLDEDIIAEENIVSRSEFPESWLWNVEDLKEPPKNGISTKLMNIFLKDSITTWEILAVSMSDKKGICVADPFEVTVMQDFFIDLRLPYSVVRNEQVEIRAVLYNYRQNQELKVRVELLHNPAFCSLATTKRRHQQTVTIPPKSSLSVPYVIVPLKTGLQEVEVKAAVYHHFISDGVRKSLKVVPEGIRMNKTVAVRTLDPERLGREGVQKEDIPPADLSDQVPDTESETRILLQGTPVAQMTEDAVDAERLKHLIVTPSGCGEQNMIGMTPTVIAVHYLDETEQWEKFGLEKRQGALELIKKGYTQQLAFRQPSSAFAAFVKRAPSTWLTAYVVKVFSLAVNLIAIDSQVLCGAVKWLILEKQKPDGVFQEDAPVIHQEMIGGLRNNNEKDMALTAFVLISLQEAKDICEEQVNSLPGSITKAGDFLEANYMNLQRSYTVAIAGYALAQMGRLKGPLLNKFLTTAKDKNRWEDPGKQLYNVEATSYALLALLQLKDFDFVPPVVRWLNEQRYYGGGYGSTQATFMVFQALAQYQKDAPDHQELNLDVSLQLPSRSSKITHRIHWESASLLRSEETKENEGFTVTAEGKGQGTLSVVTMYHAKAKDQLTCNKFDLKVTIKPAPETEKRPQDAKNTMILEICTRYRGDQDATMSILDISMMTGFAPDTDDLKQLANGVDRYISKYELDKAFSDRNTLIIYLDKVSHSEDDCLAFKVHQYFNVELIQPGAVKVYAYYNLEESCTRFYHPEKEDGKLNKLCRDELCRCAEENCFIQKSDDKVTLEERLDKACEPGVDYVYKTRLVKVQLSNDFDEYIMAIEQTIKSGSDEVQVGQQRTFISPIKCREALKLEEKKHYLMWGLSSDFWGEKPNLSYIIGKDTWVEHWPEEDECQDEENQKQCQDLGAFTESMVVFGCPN
Molecule,ka,kd
"SCIN-A: full-length staphylococcal complement inhibitor SCIN-A, Staphylococcus aureus strain Mu50 (protein) STSLPTSNEYQNEKLANELKSLLDELNVNELATGSLNTYYKRTIKISGQKAMYALKSKDFKKMSEAKYQLQKIYNEIDEALKSKY",(5.5 ± 0.15) × 10^5 M^−1s^−1,(5.1 ± 0.52) × 10^−2 s^−1
SCIN-A.R42A: full-length SCIN-A with Arg-42 alanine mutation (protein) STSLPTSNEYQNEKLANELKSLLDELNVNELATGSLNTYYKATIKISGQKAMYALKSKDFKKMSEAKYQLQKIYNEIDEALKSKY,(8.9 ± 0.15) × 10^4 M^−1s^−1,(5.8 ± 0.45) × 10^−1 s^−1
SCIN-A.Q49A (protein) STSLPTSNEYQNEKLANELKSLLDELNVNELATGSLNTYYKRTIKISGAKAMYALKSKDFKKMSEAKYQLQKIYNEIDEALKSKY,(7.6 ± 2.0) × 10^5 M^−1s^−1,(5.1 ± 0.73) × 10^−2 s^−1
